# B1: TNS3-L702E: tensin3 carrying the L702E point mutation that blocks the interaction with talin (protein, UniProt Q68CZ2 1-1445, looked up, variant L702E)
# Tensin-3: MEEGHGLDLTYITERIIAVSFPAGCSEESYLHNLQEVTRMLKSKHGDNYLVLNLSEKRYDLTKLNPKIMDVGWPELHAPPLDKMCTICKAQESWLNSNLQHVVVIHCRGGKGRIGVVISSYMHFTNVSASADQALDRFAMKKFYDDKVSALMQPSQKRYVQFLSGLLSGSVKMNASPLFLHFVILHGTPNFDTGGVCRPFLKLYQAMQPVYTSGIYNVGPENPSRICIVIEPAQLLKGDVMVKCYHKKYRSATRDVIFRLQFHTGAVQGYGLVFGKEDLDNASKDDRFPDYGKVELVFSATPEKIQGSEHLYNDHGVIVDYNTTDPLIRWDSYENLSADGEVLHTQGPVDGSLYAKVRKKSSSDPGIPGGPQAIPATNSPDHSDHTLSVSSDSGHSTASARTDKTEERLAPGTRRGLSAQEKAELDQLLSGFGLEDPGSSLKEMTDARSKYSGTRHVVPAQVHVNGDAALKDRETDILDDEMPHHDLHSVDSLGTLSSSEGPQSAHLGPFTCHKSSQNSLLSDGFGSNVGEDPQGTLVPDLGLGMDGPYERERTFGSREPKQPQPLLRKPSVSAQMQAYGQSSYSTQTWVRQQQMVVAHQYSFAPDGEARLVSRCPADNPGLVQAQPRVPLTPTRGTSSRVAVQRGVGSGPHPPDTQQPSPSKAFKPRFPGDQVVNGAGPELSTGPSPGSPTLDIDQSIEQENRLILELDPTFEPIPTHMNALGSQANGSVSPDSVGGGLRASSRLPDTGEGPSRATGRQGSSAEQPLGGRLRKLSLGQYDNDAGGQLPFSKCAWGKAGVDYAPNLPPFPSPADVKETMTPGYPQDLDIIDGRILSSKESMCSTPAFPVSPETPYVKTALRHPPFSPPEPPLSSPASQHKGGREPRSCPETLTHAVGMSESPIGPKSTMLRADASSTPSFQQAFASSCTISSNGPGQRRESSSSAERQWVESSPKPMVSLLGSGRPTGSPLSAEFSGTRKDSPVLSCFPPSELQAPFHSHELSLAEPPDSLAPPSSQAFLGFGTAPVGSGLPPEEDLGALLANSHGASPTPSIPLTATGAADNGFLSHNFLTVAPGHSSHHSPGLQGQGVTLPGQPPLPEKKRASEGDRSLGSVSPSSSGFSSPHSGSTISIPFPNVLPDFSKASEAASPLPDSPGDKLVIVKFVQDTSKFWYKADISREQAIAMLKDKEPGSFIVRDSHSFRGAYGLAMKVATPPPSVLQLNKKAGDLANELVRHFLIECTPKGVRLKGCSNEPYFGSLTALVCQHSITPLALPCKLLIPERDPLEEIAESSPQTAANSAAELLKQGAACNVWYLNSVEMESLTGHQAIQKALSITLVQEPPPVSTVVHFKVSAQGITLTDNQRKLFFRRHYPVNSVIFCALDPQDRKWIKDGPSSKVFGFVARKQGSATDNVCHLFAEHDPEQPASAIVNFVSKVMIGSPKKV
# modifications: mCherry or GFP tag
# Columns and labels:
# [1] = test system: NIH3T3 cells; test: condensates on soft vs stiff PDMS, NIH3T3 cells; assay type: cell-based, mouse; conditions: 1.5 kPa vs 28 kPa FN-coated PDMS, overnight
# Protocol: Imaging dishes equipped with 40 µm-thick PDMS substrates (1.5 and 28 kPa) were purchased from ibidi. PDMS dishes were coated with 30 μg/ml FN for 1 h, followed by three washes with PBS. Dishes were incubated with DMEM for 10 min to equilibrate before cells were plated and incubated overnight at 37°C.
# To establish a correlation between tensin3 expression and condensation formation, a maximum intensity Z-projection was performed on Z-stack images of NIH3T3 cells (step depth 0.2 μm). The integrated fluorescence intensity was measured by normalizing the mean pixel intensity of each cell to the average of all values in cells expressing mCh-TNS3. To measure the condensate coverage in NIH3T3 cells, the images were background-subtracted (rolling ball) and then thresholded. This was followed by the Analyse Particles function in FIJI/ImageJ to select round condensate structures (circularity 0.7–1.0) ([Bussi et al., 2023]; [Dumelie et al., 2024]) with a size larger than 0.1 μm^2. The same settings were applied to quantify the number of condensates in NIH3T3 and HFF cells.
# [2] = test system: TNS3KO cells; test: FN fibrils, rescue of TNS3KO cells; assay type: cell-based, human; conditions: vs TNS3-WT; IST9 antibody; 40 × 40 μm squares; n = 56 (WT) and 54 (L702E) cells
# Protocol: (§1) Cells were fixed in 4% paraformaldehyde (PFA, Sigma-Aldrich), which had been prewarmed to 37°C for 15 min before being washed three times with PBS. For immunofluorescence staining, cells were permeabilized with 0.5% Triton X-100 (Sigma-Aldrich) at room temperature for 5 min before being washed three times with PBS. Blebbistatin (Tocris Bioscience) was diluted in dimethyl sulfoxide (Sigma-Aldrich) and used at a final concentration of 50 μM. […]
# To analyze the FN fibrils, the images were background-subtracted (rolling ball), before 40 × 40 μm square boxes were applied for particle analysis to count FN fibrils larger than 0.2 μm^2. The FN coverage was calculated by dividing the area covered by FN fibrils by the total area of the box (1,600 μm^2).
# [3] = test system: active β1 integrin, U2OS TNS3KO cells; test: β1 integrin-positive adhesions, U2OS TNS3KO cells; assay type: cell-based, human; conditions: vs TNS3-WT; FN-coated; 9EG7
# Protocol: as §1
# (§2) Analysis of cell adhesion sites, FN fibrils, and LLPS condensates was performed using FIJI/ImageJ (version 1.54f) software ([Schindelin et al., 2012]). […] Prior to adhesion quantification, the images were background-subtracted using a rolling ball algorithm, followed by thresholding of adhesion sites and Analyse Particles functions in FIJI/ImageJ to quantify adhesions. Adhesion sites with sizes between 0.4 and 10 μm^2 were counted, except for adhesions in blebbistatin-treated cells, which were counted with sizes between 0.2 and 4 μm^2. […]
# [4] = test system: NIH3T3 cells; test: client protein recruitment to tensin3 condensates; assay type: cell-based, mouse; conditions: TNS3-L702E condensates
# Description: Since the observed tensin3 condensates were derived from adhesion sites in a talin-regulated mechanosensitive manner, we wondered whether these condensates contain other adhesion components or signaling molecules. To address this question, we examined a selection of cell–matrix adhesion proteins that have been reported by others to be present in LLPS condensates. These proteins include LIMD1 ([Wang et al., 2021]), kindlin2 ([Hsu et al., 2023]), talin ([Hsu et al., 2023]; [Litschel et al., 2024]), KANK ([Guo et al., 2023]), tensin1 ([Lee et al., 2023]), vinculin ([Litschel et al., 2024]), and GIT1 ([Zhu et al., 2020]). We added the actin regulatory RhoGAP DLC1 to this selection, as it is known to bind tensin ([Liao et al., 2006]; [Shih et al., 2015]), and the RNA regulatory protein GIGYF1, which we had previously identified alongside many of the aforementioned proteins in tensin BioID datasets ([Atherton et al., 2022]). We also added stress granule components G3BP1 ([Tourrière et al., […]]) and TDP-43 ([Colombrita et al., 2009]). These proteins were either co-expressed as fluorescently tagged proteins (Fig. S4 I) or, where antibodies were available, probed endogenously in cells that formed GFP-TNS3 condensates (Fig. 8 A).
# Cells were fixed in 4% paraformaldehyde (PFA, Sigma-Aldrich), which had been prewarmed to 37°C for 15 min before being washed three times with PBS. For immunofluorescence staining, cells were permeabilized with 0.5% Triton X-100 (Sigma-Aldrich) at room temperature for 5 min before being washed three times with PBS. Blebbistatin (Tocris Bioscience) was diluted in dimethyl sulfoxide (Sigma-Aldrich) and used at a final concentration of 50 μM. The following primary antibodies were diluted in 1% bovine serum albumin (BSA, Sigma-Aldrich): mouse anti-α5 integrin (SNAKA51, 1:100, NBP2-50146; Novus Biologicals), rat anti-β1 integrin (9EG7, 1:200; 553715; BD Biosciences), mouse anti-FN (IST-9, 1:100, ab6328; Abcam), rabbit anti-tensin3 (1:200, HPA055338; Atlas), mouse anti-EEA1 (1:500, 68065-1-IG; Proteintech), mouse anti-LAMP1 (1:200, ab320851; Abcam), mouse anti-paxillin (349, 1:400, mab3060; Sigma-Aldrich), rabbit anti-talin1 (1:200, 82856-4-RR; Proteintech), mouse anti-vinculin (hVin1, 1:500, V9264; Sigma-Aldrich), rabbit anti-KANK2 (1:100, HPA015643; Sigma-Aldrich), rabbit anti-kindlin2 (1:100, 11453-1-AP; Proteintech), rabbit anti-GIT1 (1:200, 26247-1-AP; Proteintech), mouse anti-phosphotyrosine (4G10, 1:200, 05-321X; Sigma-Aldrich), rabbit anti-G3BP1 (1:600, 13057-2-AP; Proteintech), rabbit anti-TDP43 (1:400, 10782-2-AP; Proteintech), and rabbit anti-GIGYF1 (1:400, ab121784; Abcam). […]
# [5] = test system: U2OS TNS3KO cells; test: α5 integrin-positive FBs, rescue of TNS3KO cells; assay type: cell-based, human; conditions: vs mCh-TNS3-WT; FN-coated, overnight; SNAKA51 antibody; n = 37 (WT) and 47 (L702E) cells
# Protocol: as §1, §2
molecule,measurement,setting,value
B1,condensates on soft vs stiff substrate,[1],no difference in condensate formation on soft versus stiff substrates
same,fewer FN fibrils,[2],over 70%
same,reduction of adhesion-promoting effect (β1 integrin-positive adhesions),[3],57%
same,"localization of talin1/2, KANK1/2 and vinculin into condensates",[4],failed to localize into the tensin3 condensates
same,"presence of tensin1, LIMD1, DLC1, and GIGYF1 in condensates",[4],remained present
same,reduction in centrally located α5 integrin-positive FBs,[5],55%
